The results in this text go back to patent publication US20220242906A1 (AGENCY FOR SCIENCE TECHNOLOGY AND RESEARCH, published 2022).

The target in assay [1] is T1, elongation initiation factor 4E (eIF4E) (UniProt P06730 2-217, limits assumed).
T1 construct: mature; In SPR it was amine-coupled to a CM5 chip with m7GTP present; also called full-length eIF4E; GS-eIF4E (biotinylated form used only for phage panning)
Kind of assay: SPR (Biacore T100), eIF4E immobilised on CM5 chip, peptide as analyte. On the procedure: Running buffer consisted of 10 mM Hepes pH 7.6, 0.15 M NaCl, and 0.1% Tween20. Stock/DMSO diluted peptide solutions were diluted into 1.03× running buffer to make a peptide solution with 3% DMSO final concentration. […] Surface Plasmon resonance experiments were performed on a Biacore T100 machine.
Pure eIF4E was immnobilized on a CM5 sensor chip. The CM5 chip was conditioned with a 6 s injection of 100 mM HCL, followed by a 6 s injection of 0.1% SDS and completed with a 6 s injection of 50 mM NaOH at a flow rate of 100 μl/min. Activation of the sensor chip surface was performed with a mixture of NHS (115 mg ml⁻¹) and EDC (750 mg ml⁻¹) for 7 min at 10 μl min⁻¹. Purified eIF4E was diluted with 10 mM sodium acetate buffer (pH 5.0) to a final concentration of 0.5 μM with m⁷GTP present in a 2:1 ratio in order to stabilize eIF4E. The amount of eIF4E immobilized on the activated surface was controlled by altering the contact time of the protein solution and was approximately 1000 RU. After the immobilization of the protein, a 7-min injection (at 10 μl min⁻¹) of 1 M ethanolamine (pH 8.5) was used to quench excess active succinimide ester groups.
Six buffer blanks were first injected to equilibrate the instrument fully and then a solvent correction curve was performed followed by a further two blank injections. […] Using a flow rate of 50 μl/min, compounds were injected for 60 s and dissociation was monitored for 180 s. The data collection rate was 10 Hz. Kds were determined using the BiaEvaluation software (Biacore) and calculated from both the response of the eIF4E coated CM5 chips at equilibrium and also kinetically from the dissociation and association phase data for each of the peptides. Both the equilibrium and kinetic data were fitted to 1:1 binding models. Each individual peptide Kd was determined from three separate titrations. Within each titration at least two concentration points were duplicated to ensure stability and robustness of the chip surface.
(In general: SPR reads the build-up and loss of mass on a sensor chip optically.)

For assay [2], the target named is T1, elongation initiation factor 4E (eIF4E). Kind of assay: competitive fluorescence anisotropy, panel 'Peptide Interaction Site': displacement of the FAM labelled tracer peptide …-(FAM) (50 nM) from eIF4E (200 nM) [cont'd) B]. On the procedure:
Apparent Kd values were then determined for a variety of molecules via competitive anisotropy experiments.
[L]ₛₜ and [L]ₜ denote labeled ligand and total unlabeled ligand input concentrations, respectively. Kd2 is the dissociation constant of the interaction between the unlabelled ligand and the protein. In all competitive types of experiments, it is assumed that [P]ₜ>[L]ₛₜ, otherwise considerable amounts of free labeled ligand would always be present and would interfere with measurements. Kd1 is the apparent Kd for the labeled peptide used in the respective experiment. […] Readings were carried out with a Envision Multi-label Reader (PerkinElmer). […] All titrations were carried out in triplicate. Curve-fitting was carried out using Prism 4.0 (GraphPad).

T1 sequence (P06730 2-217 limits assumed): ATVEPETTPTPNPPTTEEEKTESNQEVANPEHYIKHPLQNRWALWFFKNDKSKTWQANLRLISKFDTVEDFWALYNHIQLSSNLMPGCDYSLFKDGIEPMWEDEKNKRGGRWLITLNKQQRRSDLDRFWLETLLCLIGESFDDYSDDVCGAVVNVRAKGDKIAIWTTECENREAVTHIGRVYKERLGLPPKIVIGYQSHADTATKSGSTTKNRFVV

B1: EE-22 (peptide)
peptide: ACEXGFFQDCG
modifications: norleucine (Nle) at position 4; free N-terminal amine; C-terminal amide; disulphide bond between Cys2 and Cys10
notes: EE-02 with M4 replaced by norleucine
B1: binding in assay [1] was characterised by a dissociation constant (Kd) of 520 nM.

B2: PHAGESOL (KKRYSRDQLVAL) (peptide)
peptide: KKRYSRDQLVAL
notes: Phage-derived linear peptive with the canonical motif; also called PHAGSOL; PhageSol peptide
As to B2, the “IC50 (read off the curve)” value in assay [2] was ~400 nM.

B3: EE-28 (peptide)
peptide: ACEMXFFQDCG
modifications: sarcosine (Sar) at position 5; free N-terminal amine; C-terminal amide; disulphide bond between Cys2 and Cys10
notes: EE-02 with G5 replaced by sarcosine
In assay [1], B3 showed a Kd of 4200 nM.

B4: EE-19 (peptide)
peptide: ACDMGFFQDCG
HELM: PEPTIDE1{A.C.D.M.G.F.F.Q.D.C.G.[am]}$PEPTIDE1,PEPTIDE1,2:R3-10:R3$$$V2.0
SMILES: CSCC[C@@H]1NC(=O)[C@H](CC(=O)O)NC(=O)[C@@H](NC(=O)[C@H](C)N)CSSC[C@@H](C(=O)NCC(N)=O)NC(=O)[C@H](CC(=O)O)NC(=O)[C@H](CCC(N)=O)NC(=O)[C@H](Cc2ccccc2)NC(=O)[C@H](Cc2ccccc2)NC(=O)CNC1=O
notes: EE-02 with E3D
B4 yielded a Kd in assay [1] of 26000 nM.

B5: EE-21 (peptide)
peptide: ACELGFFQDCG
HELM: PEPTIDE1{A.C.E.L.G.F.F.Q.D.C.G.[am]}$PEPTIDE1,PEPTIDE1,2:R3-10:R3$$$V2.0
SMILES: CC(C)C[C@@H]1NC(=O)[C@H](CCC(=O)O)NC(=O)[C@@H](NC(=O)[C@H](C)N)CSSC[C@@H](C(=O)NCC(N)=O)NC(=O)[C@H](CC(=O)O)NC(=O)[C@H](CCC(N)=O)NC(=O)[C@H](Cc2ccccc2)NC(=O)[C@H](Cc2ccccc2)NC(=O)CNC1=O
notes: EE-02 with M4L
The molecule B5 registered a Kd in assay [1] of 2500 nM.

B6: EE-39 (ACEMGFFKDCG) (peptide)
peptide: ACEMGFFKDCG
HELM: PEPTIDE1{A.C.E.M.G.F.F.K.D.C.G.[am]}$PEPTIDE1,PEPTIDE1,2:R3-10:R3$$$V2.0
SMILES: CSCC[C@@H]1NC(=O)[C@H](CCC(=O)O)NC(=O)[C@@H](NC(=O)[C@H](C)N)CSSC[C@@H](C(=O)NCC(N)=O)NC(=O)[C@H](CC(=O)O)NC(=O)[C@H](CCCCN)NC(=O)[C@H](Cc2ccccc2)NC(=O)[C@H](Cc2ccccc2)NC(=O)CNC1=O
notes: EE-02 with Q8K
Consider B6, for which, in assay [1], the “Fold change (KD against EE-2)” value amounted to 0.5 fold and the dissociation constant Kd was determined as 109 nM.

B7: EE-35 (ACEMGFYQDCG) (peptide)
peptide: ACEMGFYQDCG
HELM: PEPTIDE1{A.C.E.M.G.F.Y.Q.D.C.G.[am]}$PEPTIDE1,PEPTIDE1,2:R3-10:R3$$$V2.0
SMILES: CSCC[C@@H]1NC(=O)[C@H](CCC(=O)O)NC(=O)[C@@H](NC(=O)[C@H](C)N)CSSC[C@@H](C(=O)NCC(N)=O)NC(=O)[C@H](CC(=O)O)NC(=O)[C@H](CCC(N)=O)NC(=O)[C@H](Cc2ccc(O)cc2)NC(=O)[C@H](Cc2ccccc2)NC(=O)CNC1=O
notes: EE-02 with F7Y
B7: the Kd in assay [1] is 137 nM.

B8: EE-40 (peptide)
peptide: ACEMGFFGDCG
HELM: PEPTIDE1{A.C.E.M.G.F.F.G.D.C.G.[am]}$PEPTIDE1,PEPTIDE1,2:R3-10:R3$$$V2.0
SMILES: CSCC[C@@H]1NC(=O)[C@H](CCC(=O)O)NC(=O)[C@@H](NC(=O)[C@H](C)N)CSSC[C@@H](C(=O)NCC(N)=O)NC(=O)[C@H](CC(=O)O)NC(=O)CNC(=O)[C@H](Cc2ccccc2)NC(=O)[C@H](Cc2ccccc2)NC(=O)CNC1=O
notes: EE-02 with Q8G
On to B8, for which, in assay [1], the “Fold change (KD against EE-2)” value is 1.9 fold and the Kd came out at 400 nM.

B9: EE-31 (peptide)
peptide: ACEMGWFQDCG
HELM: PEPTIDE1{A.C.E.M.G.W.F.Q.D.C.G.[am]}$PEPTIDE1,PEPTIDE1,2:R3-10:R3$$$V2.0
SMILES: CSCC[C@@H]1NC(=O)[C@H](CCC(=O)O)NC(=O)[C@@H](NC(=O)[C@H](C)N)CSSC[C@@H](C(=O)NCC(N)=O)NC(=O)[C@H](CC(=O)O)NC(=O)[C@H](CCC(N)=O)NC(=O)[C@H](Cc2ccccc2)NC(=O)[C@H](Cc2c[nH]c3ccccc23)NC(=O)CNC1=O
notes: EE-02 with F6W
As for B9, in assay [1], the affinity, expressed as Kd, was 5900 nM.

B10: EE-41 (ACEMGFFLDCG) (peptide)
peptide: ACEMGFFLDCG
HELM: PEPTIDE1{A.C.E.M.G.F.F.L.D.C.G.[am]}$PEPTIDE1,PEPTIDE1,2:R3-10:R3$$$V2.0
SMILES: CSCC[C@@H]1NC(=O)[C@H](CCC(=O)O)NC(=O)[C@@H](NC(=O)[C@H](C)N)CSSC[C@@H](C(=O)NCC(N)=O)NC(=O)[C@H](CC(=O)O)NC(=O)[C@H](CC(C)C)NC(=O)[C@H](Cc2ccccc2)NC(=O)[C@H](Cc2ccccc2)NC(=O)CNC1=O
notes: EE-02 with Q8L
For B10, in assay [1], the “Fold change (KD against EE-2)” value was found to be 0.9 fold and the Kd was found to be 190 nM.

B11: EE-30 (ACEMGYFQDCG) (peptide)
peptide: ACEMGYFQDCG
HELM: PEPTIDE1{A.C.E.M.G.Y.F.Q.D.C.G.[am]}$PEPTIDE1,PEPTIDE1,2:R3-10:R3$$$V2.0
SMILES: CSCC[C@@H]1NC(=O)[C@H](CCC(=O)O)NC(=O)[C@@H](NC(=O)[C@H](C)N)CSSC[C@@H](C(=O)NCC(N)=O)NC(=O)[C@H](CC(=O)O)NC(=O)[C@H](CCC(N)=O)NC(=O)[C@H](Cc2ccccc2)NC(=O)[C@H](Cc2ccc(O)cc2)NC(=O)CNC1=O
notes: EE-02 with F6Y
In assay [1], B11 had a Kd of 85 nM. That is a double-digit nanomolar value.

B12: EE-37 (peptide)
peptide: ACEMGYYQDCG
HELM: PEPTIDE1{A.C.E.M.G.Y.Y.Q.D.C.G.[am]}$PEPTIDE1,PEPTIDE1,2:R3-10:R3$$$V2.0
SMILES: CSCC[C@@H]1NC(=O)[C@H](CCC(=O)O)NC(=O)[C@@H](NC(=O)[C@H](C)N)CSSC[C@@H](C(=O)NCC(N)=O)NC(=O)[C@H](CC(=O)O)NC(=O)[C@H](CCC(N)=O)NC(=O)[C@H](Cc2ccc(O)cc2)NC(=O)[C@H](Cc2ccc(O)cc2)NC(=O)CNC1=O
notes: EE-02 with F6Y and F7Y
For B12, the Kd in assay [1] was determined as 350 nM.

B13: EE-20 (peptide)
peptide: ACEIGFFQDCG
HELM: PEPTIDE1{A.C.E.I.G.F.F.Q.D.C.G.[am]}$PEPTIDE1,PEPTIDE1,2:R3-10:R3$$$V2.0
SMILES: CC[C@H](C)[C@@H]1NC(=O)[C@H](CCC(=O)O)NC(=O)[C@@H](NC(=O)[C@H](C)N)CSSC[C@@H](C(=O)NCC(N)=O)NC(=O)[C@H](CC(=O)O)NC(=O)[C@H](CCC(N)=O)NC(=O)[C@H](Cc2ccccc2)NC(=O)[C@H](Cc2ccccc2)NC(=O)CNC1=O
notes: EE-02 with M4I
In assay [1], B13 came in with a dissociation constant Kd of 1600 nM.

B14: EE-36 (peptide)
peptide: ACEMGFWQDCG
HELM: PEPTIDE1{A.C.E.M.G.F.W.Q.D.C.G.[am]}$PEPTIDE1,PEPTIDE1,2:R3-10:R3$$$V2.0
SMILES: CSCC[C@@H]1NC(=O)[C@H](CCC(=O)O)NC(=O)[C@@H](NC(=O)[C@H](C)N)CSSC[C@@H](C(=O)NCC(N)=O)NC(=O)[C@H](CC(=O)O)NC(=O)[C@H](CCC(N)=O)NC(=O)[C@H](Cc2c[nH]c3ccccc23)NC(=O)[C@H](Cc2ccccc2)NC(=O)CNC1=O
notes: EE-02 with F7W
B14 gave a Kd in assay [1] of 2600 nM. This Kd is about 1.6-fold higher than that of the molecule before.

B15: EE-23 (peptide)
peptide: ACEXGFFQDCG
HELM: PEPTIDE1{A.C.E.[O=C([C@H](CC1CCC1)N[*:1])[*:2]].G.F.F.Q.D.C.G.[am]}$PEPTIDE1,PEPTIDE1,2:R3-10:R3$$$V2.0
SMILES: C[C@H](N)C(=O)N[C@H]1CSSC[C@@H](C(=O)NCC(N)=O)NC(=O)[C@H](CC(=O)O)NC(=O)[C@H](CCC(N)=O)NC(=O)[C@H](Cc2ccccc2)NC(=O)[C@H](Cc2ccccc2)NC(=O)CNC(=O)[C@H](CC2CCC2)NC(=O)[C@H](CCC(=O)O)NC1=O
notes: EE-02 with M4 replaced by cyclobutylalanine
B15 showed a Kd in assay [1] of 35000 nM.

B16: EE-44 (CEMGFFADC) (peptide)
peptide: CEMGFFADC
HELM: PEPTIDE1{C.E.M.G.F.F.A.D.C.[am]}$PEPTIDE1,PEPTIDE1,1:R3-9:R3$$$V2.0
SMILES: CSCC[C@@H]1NC(=O)[C@H](CCC(=O)O)NC(=O)[C@@H](N)CSSC[C@@H](C(N)=O)NC(=O)[C@H](CC(=O)O)NC(=O)[C@H](C)NC(=O)[C@H](Cc2ccccc2)NC(=O)[C@H](Cc2ccccc2)NC(=O)CNC1=O
notes: EE-02 without A1 and G11 and with Q8A
As for B16, in assay [1], the “Fold change (KD against EE-2)” value was found to be 0.4 fold and the Kd is 79 nM.

As usually defined, the Kd is the constant that tells how readily two partners part at equilibrium. A lower Kd goes with higher affinity.
